This note sets out measurements from patent publication US9416178B2, “Jagged-binding agents and uses thereof” (OncoMed Pharmaceuticals, Inc., priority 2009, dated 2016).

The subject of assay [1] is PN17 pancreatic tumor cells. Description: PN17 pancreatic tumor xenograft model. The class given is in vivo, NOD/SCID mice. The conditions noted are these: antibody 15 mg/kg twice a week or gemcitabine 5 mg/kg once a week, intraperitoneally, FIG. 7. The protocol:
PN17 pancreatic tumor cells were injected subcutaneously into the flanks of NOD/SCID mice. 10,000 cells were injected per animal. Mice were monitored weekly and tumors were allowed to grow until they were approximately 145 mm^3. The mice were randomized into four treatment groups (n=10 mice/group) and treated with either control antibody (LZ-1), anti-Jagged 64M51, gemcitabine or a combination of 64M51 and gemcitabine. Gemcitabine was administered intraperitoneally at a dose of 5 mg/kg once a week and antibodies were administered intraperitoneally at a dose of 15 mg/kg twice a week.

For the next assay, the system named is OMP-Lu45 cells. Description: Lu45 lung tumor xenograft model (Example 16). The class given is in vivo, NOD/SCID mice. The conditions noted are these: FIG. 14; for reduction of tumor growth, antibody in combination with taxol relative to taxol alone: antibody 15 mg/kg twice a week plus taxol 15 mg/kg once a week. The protocol:
The anti-tumor activity of antibodies 64R7, 133R0201, 133R0203, 133R0205 and 133R206 was evaluated in the lung Lu45 tumor xenograft model. Dissociated OMP-Lu45 cells (50,000 per animal) were injected subcutaneously into 6-8 week old male NOD/SCID mice. Tumor growth was monitored weekly and tumor measurements were initiated once tumors were palpable. On day 41, mice with average tumor volumes of 132 mm^3 were randomized into 10 groups of 10 animals each. Animals were injected with control antibody, antibody 64R7, antibody 133R0201, antibody 133R0203, antibody 133R0205, antibody 133R0206 (all at 15 mg/kg), taxol (15 mg/kg), a combination of antibody 64R7 and taxol, a combination of antibody 133R0203 and taxol, or a combination of antibody 133R0205 and taxol. Administration of the antibodies and taxol was performed via injection into the intra-peritoneal cavity, once a week for taxol and twice a week for antibodies. Tumors were measured twice a week and tumor volume was determined using the formula ½(a×b^2); where a=length, and b=breadth. Data are expressed as mean and mean±S.E.M. Group means were compared using Student's two-tailed, unpaired t test.

Assay [2] deals with human Jagged2-induced Notch activation. The assay is described as follows: Notch luciferase reporter assay, two cell population format. It counts as cell-based. The conditions noted are these: Example 14; PC3 cells; antibody 50 to 0.2 μg/ml; FIG. 12A. The text has this: (§1) The ability of Jagged antibodies to inhibit Jagged-induced Notch signaling was also investigated using a two cell population assay format. One population of human PC3 cells was transfected with an expression vector encoding a full-length Notch2 receptor as well as plasmids encoding a Notch-dependent firefly luciferase reporter construct (8×CBF luciferase) and a Renilla luciferase reporter (Promega, Madison Wis.) as an internal transfection control. A second population of human PC3 cells was transfected with an expression vector encoding a full-length cDNA for either hJagged1 or hJagged2. Aliquots of the two cell populations were mixed together and incubated overnight in the presence of 64M51, 64R7 or 64R1B antibodies that were serially diluted 1:4 from 40 to 0.039 μg/ml, luciferase levels were measured 18 hours later using a dual luciferase assay kit (Promega, Madison, Wis.) with firefly luciferase activity normalized to Renilla luciferase activity. Shown is a titration of 64M51, 64R1B and 64R7 antibodies in this assay.
(§2) The ability of Jagged antibodies 133R0201, 133R0203, 133R0205, 133R0207, 133R0208, 133R0209 and 133R0210 to inhibit Jagged-induced Notch signaling was investigated using a two cell population assay format as described above in Example 6. One population of human PC3 cells was transfected with an expression vector encoding a full-length Notch2 receptor as well as plasmids encoding a Notch-dependent firefly luciferase reporter construct (8×CBF luciferase) and a Renilla luciferase reporter (Promega, Madison Wis.) as an internal transfection control. A second population of human PC3 cells was transfected with an expression vector encoding a full-length cDNA for either hJagged1 or hJagged2. Aliquots of the two cell populations were mixed together and incubated overnight in the presence of antibodies 64R7, 133R0201, 133R0203, 133R0205, 133R0207, 133R0208, 133R0209 and 133R0210 that were serially diluted 1:3 from 50 to 0.2 μg/ml. Luciferase levels were measured 18 hours later using a dual luciferase assay kit (Promega, Madison, Wis.) with firefly luciferase activity normalized to Renilla luciferase activity. Shown in FIGS. 12A and 12B are titrations of the antibodies in this assay.
(In general: A reporter such as luciferase makes a cellular process visible.)

The subject of assay [3] is human Jagged1-induced Notch2 activation. The description is as above. The class given is cell-based. The conditions noted are these: Example 14; PC3 cells; antibody 50 to 0.2 μg/ml; FIG. 12B.
Excerpt: as §1, §2

A further assay deals with OMP-Lu42 cells. Description: Lu42 lung tumor xenograft model. It counts as in vivo, NOD/SCID mice. The conditions noted are these: 15 mg/kg intraperitoneally twice a week, FIG. 13. How it is done: The anti-tumor activity of antibodies 64R7, 133R0203, and 133R0205 were evaluated in the lung Lu42 tumor xenograft model. Dissociated OMP-Lu42 cells (50,000 per animal) were injected subcutaneously into 6-8 week old male NOD/SCID mice. Tumor growth was monitored weekly and tumor measurements were initiated once tumors were palpable. On day 54, mice with average tumor volumes of 114 mm^3 were randomized into 4 groups of 10 animals each. Animals were injected with 15 mg/kg of either control antibody, antibody 64R7, antibody 133R0203, or antibody 133R0205. Administration of the antibodies was performed via injection into the intraperitoneal cavity, twice a week. Tumors were measured twice a week and tumor volume was determined using the formula ½(a×b^2); where a=length, and b=breadth. Data are expressed as mean and mean±S.E.M. Group means were compared using Student's two-tailed, unpaired t test.

Turning to `Nc1ccn([C@@H]2O[C@H](CO)[C@@H](O)C2(F)F)c(=O)n1` [gemcitabine, reference compound], the “tumor growth, single agent” value in assay [1] is recorded as “transient initial response”.

B1: 133R0201: 64R7 variant anti-Jagged antibody; heavy chain variable region SEQ ID NO:50, light chain variable region SEQ ID NO:21 (antibody, V domains shown)
VH: QVQLVESGGGVVQPGRSLRLSCAASGFTFSSYAMHWVRQAPGKGLEWVAAIYPDSSNKYYADSVKGRFTISRDNSKNTLYLQMNSLRAEDTAVYYCARDKYDIPDAFDIWGQGTLVTVS
VL: DIRMTQSPSSLSASVGDRVTITCRASQGISNDLAWYQQKPGKVPRLLIYATSTLQSGVPSRFSGSGSATDFTLTISSLQPEDVATYYCQQSYNAPITFGQGTRLEIK
modifications: 133R0201 Heavy chain variable region; 64R7 Light chain variable region
Regarding B1, the “reduction in tumor growth, single agent compared to control antibody” value (shortened to “reduction in tumor growth, single agent”) in the assay with OMP-Lu45 cells (15 mg/kg twice a week) came out at 24%. The “inhibition of human Jagged2-induced Notch activation, two cell population assay” value in assay [2] is “inhibitors”. Moreover, the “inhibition of human Jagged1-induced Notch activation, two cell population assay” value in assay [3] is “inhibitors”.

B2: 133R0205: 64R7 variant anti-Jagged antibody; heavy chain variable region SEQ ID NO:52, light chain variable region SEQ ID NO:21 (antibody, V domains shown)
VH: QVQLVESGGGVVQPGRSLRLSCAASGFTFSSYAMHWVRQAPGKGLEWVAAIYPASSNKYYADSVKGRFTISRDNSKNTLYLQMNSLRAEDTAVYYCARDKYDIPDAFDIWGQGTLVTVS
VL: DIRMTQSPSSLSASVGDRVTITCRASQGISNDLAWYQQKPGKVPRLLIYATSTLQSGVPSRFSGSGSATDFTLTISSLQPEDVATYYCQQSYNAPITFGQGTRLEIK
modifications: 133R0205 Heavy chain variable region; 64R7 Light chain variable region
For the molecule B2, the “reduction in tumor growth, single agent” value in the assay on OMP-Lu42 cells came to 33%. Moreover, the “reduction of tumor growth, antibody in combination with taxol relative to taxol alone” value with OMP-Lu45 cells was “reduction of tumor growth”. For the same molecule, the “inhibition of human Jagged2-induced Notch activation, two cell population assay” value in assay [2] was “inhibitors”. Besides, in assay [3], the “inhibition of human Jagged1-induced Notch activation, two cell population assay” value is listed as “inhibitors”.

B3: 133R0203: 64R7 variant anti-Jagged antibody; heavy chain variable region SEQ ID NO:51, light chain variable region SEQ ID NO:21 (antibody, V domains shown)
VH: QVQLVESGGGVVQPGRSLRLSCAASGFTFSSYAMHWVRQAPGKGLEWVAAISPEASNKYYADSVKGRFTISRDNSKNTLYLQMNSLRAEDTAVYYCARDKYDIPDAFDIWGQGTLVTVS
VL: DIRMTQSPSSLSASVGDRVTITCRASQGISNDLAWYQQKPGKVPRLLIYATSTLQSGVPSRFSGSGSATDFTLTISSLQPEDVATYYCQQSYNAPITFGQGTRLEIK
modifications: 133R0203 Heavy chain variable region; 64R7 Light chain variable region
For the molecule B3, the “reduction in tumor growth, single agent” value in the assay on OMP-Lu42 cells came out at 28%. In addition, in the assay on OMP-Lu45 cells, the “reduction of tumor growth, antibody in combination with taxol relative to taxol alone” value is given as 36%. In addition, the “inhibition of human Jagged2-induced Notch activation, two cell population assay” value in assay [2] is listed as “inhibitors”. For the same molecule, the “inhibition of human Jagged1-induced Notch activation, two cell population assay” value in assay [3] was “inhibitors”.
